Reference: US20240327535A1 (EISAI R AND D MANAGEMENT, published 2024)
Read-outs that look alike come from different tables or passages of the source.

Key:
Test in all cases: Octet BLI; Fab 200 nM
[1] = biological target: T1, extracellular domain of rhesus monkey BCMA (rhesus monkey, UniProt F7FFA0 1-53)
T1 construct: extracellular domain; also called RhBCMA

[2] = biological target: T2, extracellular domain of human BCMA (human, UniProt Q02223 1-54)
T2 construct: amine-linked to Octet AR2G tips; also called hsBCMA; BCMA (human)
T2 sequence: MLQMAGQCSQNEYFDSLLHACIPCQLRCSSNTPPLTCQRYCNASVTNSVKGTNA

[3] = biological target: T1, extracellular domain of rhesus monkey …; remark: listed apart in the source
[4] = biological target: T2, extracellular domain of human BCMA; remark: listed apart in the source

T1 sequence (F7FFA0 entry or part of it): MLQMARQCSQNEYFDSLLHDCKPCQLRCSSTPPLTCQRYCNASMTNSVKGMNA

B1: AB200-(2Vk35)_R2-VH-v9 (Fab, V domains shown)
VH: QVQLVQSGAEVKKPGSSVKVSCKASGGTYSNYWIHWVRQAPGQGLEWMGATYRSQSDTNYNQKFKSRVTITADKSTSTAYMELSSLRSEDTAVYYCARGAIYHGFDVIDNWGQGTLVTVSS
VL: DIQMTQSPSSLSASVGDRVTITCRASQSISSYINWYQQKPGKAPKLLIYATSNLQSGVPSRFSGSGSGTDFTLTISSLQPEDFATYYCQQYRRIPWTFGQGTKLEIKR
Kd [1]: 103 nM | Kd [2]: 49.3 nM

B2: AB200-(2Vk35)_R2-VH-v52 (Fab, V domains shown)
VH: QVQLVQSGAEVKKPGSSVKVSCKASGGSFSNYWIHWVRQAPGQGLEWMGATYRIQSDTYYAQKFKSRVTITADKSTSTAYMELSSLRSEDTAVYYCARGAIFHGYDVIDNWGQGTLVTVSS
VL: DIQMTQSPSSLSASVGDRVTITCRASQSISSYINWYQQKPGKAPKLLIYATSNLQSGVPSRFSGSGSGTDFTLTISSLQPEDFATYYCQQYRRIPWTFGQGTKLEIKR
Kd [1]: 25.7 nM | Kd [2]: 6.24 nM

B3: AB200-(2Vk35)_R2-VH-v56 (Fab, V domains shown)
VH: QVQLVQSGAEVKKPGSSVKVSCKASGGSFSNYWIHWVRQAPGQGLEWMGATYRIHSDTYYAQKYKSRVTITADKSTSTAYMELSSLRSEDTAVYYCARGAIFHGYDVIDNWGQGTLVTVSS
VL: DIQMTQSPSSLSASVGDRVTITCRASQSISSYINWYQQKPGKAPKLLIYATSNLQSGVPSRFSGSGSGTDFTLTISSLQPEDFATYYCQQYRRIPWTFGQGTKLEIKR
Kd [1]: 44.7 nM | Kd [2]: 11.3 nM

B4: AB200-(2Vk44)_R2-VH-v14 (Fab, V domains shown)
VH: QVQLVQSGAEVKKPGSSVKVSCKASGGSFSNYWIHWVRQAPGQGLEWMGATYRSHSTTYYNEKFKSRVTITADKSTSTAYMELSSLRSEDTAVYYCARGAVYHGYDVIDNWGQGTLVTVSS
VL: DIQMTQSPSSLSASVGDRVTITCRASQSISSYINWYQQKPGKAPKLLIYATSNLQIGVPSRFSGSGSGTDFTLTISSLQPEDFATYYCQQYRRLPWSFGQGTKLEIKR
Kd [3]: 16.9 nM | Kd [4]: 7.55 nM

B5: AB200-(2Vk35)_R2-VH-v26 (Fab, V domains shown)
VH: QVQLVQSGAEVKKPGSSVKVSCKASGGTFSNYWIHWVRQAPGQGLEWMGATYRSHSTTYYAQKFKSRVTITADKSTSTAYMELSSLRSEDTAVYYCARGAIFHGYDVIDNWGQGTLVTVSS
VL: DIQMTQSPSSLSASVGDRVTITCRASQSISSYINWYQQKPGKAPKLLIYATSNLQSGVPSRFSGSGSGTDFTLTISSLQPEDFATYYCQQYRRIPWTFGQGTKLEIKR
Kd [1]: 40.7 nM | Kd [2]: 20.9 nM

B6: AB200-(2Vk35)_R2-VH-v38 (Fab, V domains shown)
VH: QVQLVQSGAEVKKPGSSVKVSCKASGGTFSNYWIHWVRQAPGQGLEWMGATYRSQSDTYYNEKFKSRVTITADKSTSTAYMELSSLRSEDTAVYYCARGAIYHGFDVIDNWGQGTLVTVSS
VL: DIQMTQSPSSLSASVGDRVTITCRASQSISSYINWYQQKPGKAPKLLIYATSNLQSGVPSRFSGSGSGTDFTLTISSLQPEDFATYYCQQYRRIPWTFGQGTKLEIKR
Kd [1]: 9.59 nM | Kd [2]: 1.89 nM

B7: AB200-(2Vk35)_R2-VH-v62 (Fab, V domains shown)
VH: QVQLVQSGAEVKKPGSSVKVSCKASGGTFSNYWIHWVRQAPGQGLEWMGGTYRIHSDTYYNEKFKSRVTITADKSTSTAYMELSSLRSEDTAVYYCARGAIYHGYDVIENWGQGTLVTVSS
VL: DIQMTQSPSSLSASVGDRVTITCRASQSISSYINWYQQKPGKAPKLLIYATSNLQSGVPSRFSGSGSGTDFTLTISSLQPEDFATYYCQQYRRIPWTFGQGTKLEIKR
Kd [1]: 49 nM | Kd [2]: 14.5 nM

B8: AB200-(2Vk35)_R2-VH-v11 (Fab, V domains shown)
VH: QVQLVQSGAEVKKPGSSVKVSCKASGGTYSNYWIHWVRQAPGQGLEWMGATYRSHSDTNYNEKFKSRVTITADKSTSTAYMELSSLRSEDTAVYYCARGAVYHGYDVIDNWGQGTLVTVSS
VL: DIQMTQSPSSLSASVGDRVTITCRASQSISSYINWYQQKPGKAPKLLIYATSNLQSGVPSRFSGSGSGTDFTLTISSLQPEDFATYYCQQYRRIPWTFGQGTKLEIKR
Kd [1]: 130 nM | Kd [2]: 47 nM

B9: AB200-(2Vk35)_R2-VH-v49 (Fab, V domains shown)
VH: QVQLVQSGAEVKKPGSSVKVSCKASGGTYSNYWIHWVRQAPGQGLEWMGATYRIQSTTYYNQKFKSRVTITADKSTSTAYMELSSLRSEDTAVYYCARGAIYHGYDVIENWGQGTLVTVSS
VL: DIQMTQSPSSLSASVGDRVTITCRASQSISSYINWYQQKPGKAPKLLIYATSNLQSGVPSRFSGSGSGTDFTLTISSLQPEDFATYYCQQYRRIPWTFGQGTKLEIKR
Kd [1]: 126 nM | Kd [2]: 63.2 nM

B10: AB200-(2Vk35)_R2-VH-v55 (Fab, V domains shown)
VH: QVQLVQSGAEVKKPGSSVKVSCKASGGSFSNYWIHWVRQAPGQGLEWMGATYRIHSTTYYNQKYKSRVTITADKSTSTAYMELSSLRSEDTAVYYCARGAVYHGYDVIDNWGQGTLVTVSS
VL: DIQMTQSPSSLSASVGDRVTITCRASQSISSYINWYQQKPGKAPKLLIYATSNLQSGVPSRFSGSGSGTDFTLTISSLQPEDFATYYCQQYRRIPWTFGQGTKLEIKR
Kd [1]: 43.1 nM | Kd [2]: 19.7 nM

B11: AB200-(2Vk35)_R2-VH-v15 (Fab, V domains shown)
VH: QVQLVQSGAEVKKPGSSVKVSCKASGGSFSNYWIHWVRQAPGQGLEWMGATYRSQSTTYYNQKFKSRVTITADKSTSTAYMELSSLRSEDTAVYYCARGAIFHGYDVIDNWGQGTLVTVSS
VL: DIQMTQSPSSLSASVGDRVTITCRASQSISSYINWYQQKPGKAPKLLIYATSNLQSGVPSRFSGSGSGTDFTLTISSLQPEDFATYYCQQYRRIPWTFGQGTKLEIKR
Kd [1]: 48.6 nM | Kd [2]: 25.5 nM

B12: AB200-(2Vk44)_R2-VH-v7 (Fab, V domains shown)
VH: QVQLVQSGAEVKKPGSSVKVSCKASGGTYSNYWIHWVRQAPGQGLEWMGATYRSHSTTYYAQKFKSRVTITADKSTSTAYMELSSLRSEDTAVYYCARGAIYHGFDVIDNWGQGTLVTVSS
VL: DIQMTQSPSSLSASVGDRVTITCRASQSISSYINWYQQKPGKAPKLLIYATSNLQIGVPSRFSGSGSGTDFTLTISSLQPEDFATYYCQQYRRLPWSFGQGTKLEIKR
Kd [3]: 71.7 nM | Kd [4]: 40.6 nM

B13: AB200-(2Vk35)_R2-VH-v48 (Fab, V domains shown)
VH: QVQLVQSGAEVKKPGSSVKVSCKASGGTYSNYWIHWVRQAPGQGLEWMGGTYRIHSTTYYNQKFKSRVTITADKSTSTAYMELSSLRSEDTAVYYCARGAIYHGFDVIDNWGQGTLVTVSS
VL: DIQMTQSPSSLSASVGDRVTITCRASQSISSYINWYQQKPGKAPKLLIYATSNLQSGVPSRFSGSGSGTDFTLTISSLQPEDFATYYCQQYRRIPWTFGQGTKLEIKR
Kd [1]: 52 nM | Kd [2]: 36.6 nM

B14: AB200-(2Vk44)_R2-VH-v1 (Fab, V domains shown)
VH: QVQLVQSGAEVKKPGSSVKVSCKASGGTFTNYWIHWVRQAPGQGLEWMGGTYRSHSDTYYNQKYKSRVTITADKSTSTAYMELSSLRSEDTAVYYCARGAIYHGYDVIENWGQGTLVTVSS
VL: DIQMTQSPSSLSASVGDRVTITCRASQSISSYINWYQQKPGKAPKLLIYATSNLQIGVPSRFSGSGSGTDFTLTISSLQPEDFATYYCQQYRRLPWSFGQGTKLEIKR
Kd [3]: 40 nM | Kd [4]: 11.8 nM

B15: AB200-(2Vk35)_R2-VH-v32 (Fab, V domains shown)
VH: QVQLVQSGAEVKKPGSSVKVSCKASGGTFSNYWIHWVRQAPGQGLEWMGATYRSHSDTNYNQKYKSRVTITADKSTSTAYMELSSLRSEDTAVYYCARGAIFHGYDVIDNWGQGTLVTVSS
VL: DIQMTQSPSSLSASVGDRVTITCRASQSISSYINWYQQKPGKAPKLLIYATSNLQSGVPSRFSGSGSGTDFTLTISSLQPEDFATYYCQQYRRIPWTFGQGTKLEIKR
Kd [1]: 67.3 nM | Kd [2]: 29.1 nM

B16: AB200-(2Vk35)_R2-VH-v36 (Fab, V domains shown)
VH: QVQLVQSGAEVKKPGSSVKVSCKASGGTFSNYWIHWVRQAPGQGLEWMGATYRSHSDTYYAEKFKSRVTITADKSTSTAYMELSSLRSEDTAVYYCARGAIFHGYDVIDNWGQGTLVTVSS
VL: DIQMTQSPSSLSASVGDRVTITCRASQSISSYINWYQQKPGKAPKLLIYATSNLQSGVPSRFSGSGSGTDFTLTISSLQPEDFATYYCQQYRRIPWTFGQGTKLEIKR
Kd [1]: 14.8 nM | Kd [2]: 3.15 nM

B17: AB200-(2Vk35)_R2-VH-v46 (Fab, V domains shown)
VH: QVQLVQSGAEVKKPGSSVKVSCKASGGTYSNYWIHWVRQAPGQGLEWMGATYRIQSDTNYNQKFKSRVTITADKSTSTAYMELSSLRSEDTAVYYCARGAIYHGYDVIENWGQGTLVTVSS
VL: DIQMTQSPSSLSASVGDRVTITCRASQSISSYINWYQQKPGKAPKLLIYATSNLQSGVPSRFSGSGSGTDFTLTISSLQPEDFATYYCQQYRRIPWTFGQGTKLEIKR
Kd [1]: 287 nM | Kd [2]: 103 nM

B18: AB200-(2Vk35)_R2-VH-v63 (Fab, V domains shown)
VH: QVQLVQSGAEVKKPGSSVKVSCKASGGTFSNYWIHWVRQAPGQGLEWMGATYRIHSTTNYNQKFKSRVTITADESTSTAYMELSSLRSEDTAVYYCARGAVYHGYDVIDNWGQGTLVTVSS
VL: DIQMTQSPSSLSASVGDRVTITCRASQSISSYINWYQQKPGKAPKLLIYATSNLQSGVPSRFSGSGSGTDFTLTISSLQPEDFATYYCQQYRRIPWTFGQGTKLEIKR
Kd [1]: 9.56 nM | Kd [2]: 27.1 nM

B19: AB200-(2Vk35)_R2-VH-v69 (Fab, V domains shown)
VH: QVQLVQSGAEVKKPGSSVKVSCKASGGTFSNYWIHWVRQAPGQGLEWMGATYRIQSDTNYNQKFKSRVTITADKSTSTAYMELSSLRSEDTAVYYCARGAVYHGYDVIDNWGQGTLVTVSS
VL: DIQMTQSPSSLSASVGDRVTITCRASQSISSYINWYQQKPGKAPKLLIYATSNLQSGVPSRFSGSGSGTDFTLTISSLQPEDFATYYCQQYRRIPWTFGQGTKLEIKR
Kd [1]: 46.6 nM | Kd [2]: 16.2 nM

B20: AB200-(2Vk35)_R2-VH-v76 (Fab, V domains shown)
VH: QVQLVQSGAEVKKPGSSVKVSCKASGGTFSNYWIHWVRQAPGQGLEWMGATYRIQSDTYYNEKFKSRVTITADKSTSTAYMELSSLRSEDTAVYYCARGAIYHGFDVIDNWGQGTLVTVSS
VL: DIQMTQSPSSLSASVGDRVTITCRASQSISSYINWYQQKPGKAPKLLIYATSNLQSGVPSRFSGSGSGTDFTLTISSLQPEDFATYYCQQYRRIPWTFGQGTKLEIKR
Kd [1]: 8.46 nM | Kd [2]: 1.93 nM
